Data taken from doi:10.1101/2024.12.02.626349 (bioRxiv, 2024).

Biological target: ^15N-labeled wild-type untagged ubiquitin (UniProt P0CG48 1-76, ^15N-labeled)
Experiment: NMR titration

B1: 6xHis-tagged UBR4-UBL (residues 4340-4463) (domain or fragment)
chain: YPEENEVTEFFVTLEKDPQQEDFLQGRMPGNPYSSNEPGIGPLMRDIKNKICQDCDLVALLEDDSGMELLVNNKIISLDLPVAEVYKKVWCTTNEGEPMRIVYRMRGLLGDATEEFIESLDSTT
  Kd: 124 µM
